Test results as given in patent US11780903B2, “Peptide suppressing binding of CTLA4 to B7 proteins, and use thereof” (TOAGOSEI CO., LTD., priority 2020, dated 2023).
No end group written: not given here.

Legend:
binding of CTLA4 to B7-1 = target: T1, binding of CTLA4 to B7-1 (Homo sapiens, UniProt P16410); test: Test for evaluating binding inhibitory properties between CTLA4 and B7-1 (BPS #72009 inhibitor screening assay kit, chemiluminescence); settings: peptide concentration 5 μM and/or 10 μM as in Table 2; plate-coated CTLA4, biotin-labeled B7-1; n=2 wells; versus no peptide added
T1 construct: purchased BPS Bioscience BPS #72009
T1 sequence (P16410 36-161 limits assumed): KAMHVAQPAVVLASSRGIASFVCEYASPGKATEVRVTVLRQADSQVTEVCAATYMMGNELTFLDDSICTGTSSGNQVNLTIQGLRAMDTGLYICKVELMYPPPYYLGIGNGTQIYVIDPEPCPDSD
Procedure: The binding inhibitory properties between CTLA4 and B7-1 were evaluated for the 6 kinds of sample peptides synthesized in the above-described Test Example 1.
In this test, Test Examples 2-1 to 2-9 were set according to the kinds of sample peptide used and the peptide concentration as shown in Table 2 below. In addition, a peptide-free group was set as Test Example 2-10. The tests of the above-described 10 categories in total were carried out as follows. The numbers “1 to 10” shown in the “No.” column of Table 2 represent “Test Examples 2-1 to 2-10” in Test Example 2. In addition, the number (n) of test wells in each of the above-described examples was set to 2.
In Test Example 2-1, the following kit currently available on the market was used. CTLA4 B7-1 (Biotinylated) inhibitor screening assay kit (manufactured by BPS Bioscience, BPS #72009)
The operation for this test example was based on “ASSAY PROTOCOL” described in the data sheet of the above-described kit. A brief procedure is shown below.
First, each well of a 96-well plate was coated with CTLA4. Specifically, a CTLA4 solution (2 μg/mL) was dispensed into each well of the 96-well plate, and the plate was incubated overnight at 4° C.
Subsequently, the CTLA4 solution was removed, and each well was washed.
Subsequently, blocking was performed. Specifically, a blocking buffer contained in the kit was dispensed into each well, and the plate was incubated for 1 hour at room temperature.
Subsequently, a solution of the Sample 1 was dispensed into each well, and the plate was incubated for 1 hour at room temperature.
Subsequently, a biotin-labeled B7-1 solution (1.25 ng/mL) was dispensed into each well of the 96-well plate, and the plate was incubated for 2 hours at room temperature.
After the above-described incubation, the peptide solution was removed, and each well was washed. […]
Subsequently, the blocking buffer was removed, a chemiluminescent reagent contained in the above-described kit was dispensed into each well, and the chemiluminescence intensity in each well was measured with a luminometer. […]

binding of CTLA4 to B7-2 = target: T2, binding of CTLA4 to B7-2 (Homo sapiens, UniProt P16410); test: Test for evaluating binding inhibitory properties between CTLA4 and B7-2 (BPS #79658 inhibitor screening assay kit, chemiluminescence); settings: peptide concentration 5 μM and/or 10 μM as in Table 2; plate-coated CTLA4, biotin-labeled B7-2; n=2 wells; versus no peptide added
T2 construct: purchased BPS Bioscience BPS #79658
T2 sequence (P16410 36-161 limits assumed): T1 sequence (P16410 36-161 limits assumed)
Procedure: The binding inhibitory properties between CTLA4 and B7-2 were evaluated for the 6 kinds of sample peptides synthesized in the above-described Test Example 1.
In this test, Test Examples 3-1 to 3-9 were set according to the kind of sample peptide used and the peptide concentration as shown in Table 2 mentioned above. In addition, a peptide-free group was set as Test Example 3-10. The tests of the above-described 10 categories in total were carried out as follows. The numbers “1 to 10” shown in the “No.” column of Table 2 represent “Test Examples 3-1 to 3-10” in Test Example 3. In addition, the number (n) of test wells in each of the above-described examples was set to 2.
In Test Example 3-1, the following kit currently available on the market was used. CTLA4 B7-2 (Biotinylated) inhibitor screening assay kit (BPS #79658)
The operation for this test example was based on “ASSAY PROTOCOL” described in the data sheet of the above-described kit.
Test Example 3-1 was performed using the same materials and processes as those of Test Example 2-1 except that the above-described kit was used.

Sequence | suppression of binding of CTLA4 to B7-1 (chemiluminescence intensity, FIG. 1) (binding of CTLA4 to B7-1) | suppression of binding of CTLA4 to B7-2 (chemiluminescence intensity, FIG. 2) (binding of CTLA4 to B7-2)
MQIPQAPWPVVWAVLQLGWRMQIPQAPWRPVVWAVLQLGW [Sample 5] | no action of suppressing the binding of CTLA4 to B7-1 was observed | 
KKRTLRKNDR KKR (KKRTLRKNDRKKR-NH2) [Sample 6] | not suppressed | not suppressed
MQIPQAPWPVVWAVLQLGWR (MQIPQAPWPVVWAVLQLGWR-NH2) [Sample 4] | no action of suppressing the binding of CTLA4 to B7-1 was observed | 
